{"source": "paper PMC6804253", "about": "“Predicting and Experimentally Validating Hot-Spot Residues at Protein–Protein Interfaces” (ACS Chemical Biology, 2019)", "key": {"[1]": {"test_system": "PPIs of the SKEMPI data set (by PDBID)", "test": "SKEMPI experimental ΔΔG, single mutations to alanine", "format": "binding", "conditions": "for sk_class: class of the SKEMPI experimental ΔΔG, ref SKEMPI; for sk_class (class of the SKEMPI experimental ΔΔG): class by the 4.184 kJ/mol threshold, r_group DERKH"}, "[2]": {"test_system": "PPIs of the SKEMPI data set (by PDBID)", "conditions": "single mutation to alanine, complex by PDBID, ref SKEMPI, cited from earlier work; for sk_ddG_kJ: SKEMPI experimental ΔΔG of binding; for sk_ddG_kJ (SKEMPI experimental ΔΔG, mutation to alanine): sheet sortedByGroup, r_group DERKH"}}}
{"molecule": "1DFJ EI202A (protein, UniProt P10775 1-456, looked up, variant E202A) Ribonuclease inhibitor: MNLDIHCEQLSDARWTELLPLLQQYEVVRLDDCGLTEEHCKDIGSALRANPSLTELCLRTNELGDAGVHLVLQGLQSPTCKIQKLSLQNCSLTEAGCGVLPSTLRSLPTLRELHLSDNPLGDAGLRLLCEGLLDPQCHLEKLQLEYCRLTAASCEPLASVLRATRALKELTVSNNDIGEAGARVLGQGLADSACQLETLRLANCGLTPANCKDLCGIVASQASLRELDLGSNGLGDAGIAELCPGLLSPASRLKTLWLWECDITASGCRDLCRVLQAKETLKELSLAGNKLGDEGARLLCESLLQPGCQLESLWVKSCSLTAACCQHVSLMLTQNKHLLELQLSSNKLGDSGIQELCQALSQPGTTLRVLCLGDCEVTNSGCSSLASLLLANRSLRELDLSNNCVGDPGVLQLLGSLEQPGCALEQLVLYDTYWTEEVEDRLQALEGSKPGLRVIS", "values": [{"measurement": "sk_class", "setting": "[1]", "result": "Positive (positive (a hot residue) ΔΔG ≥ 4.184 kJ/mol)"}, {"measurement": "sk_ddG_kJ", "setting": "[2]", "result": 4.27, "unit": "kJ"}]}
{"molecule": "1DFJ KI316A (protein, UniProt P10775 1-456, looked up, variant K316A) Ribonuclease inhibitor: MNLDIHCEQLSDARWTELLPLLQQYEVVRLDDCGLTEEHCKDIGSALRANPSLTELCLRTNELGDAGVHLVLQGLQSPTCKIQKLSLQNCSLTEAGCGVLPSTLRSLPTLRELHLSDNPLGDAGLRLLCEGLLDPQCHLEKLQLEYCRLTAASCEPLASVLRATRALKELTVSNNDIGEAGARVLGQGLADSACQLETLRLENCGLTPANCKDLCGIVASQASLRELDLGSNGLGDAGIAELCPGLLSPASRLKTLWLWECDITASGCRDLCRVLQAKETLKELSLAGNKLGDEGARLLCESLLQPGCQLESLWVASCSLTAACCQHVSLMLTQNKHLLELQLSSNKLGDSGIQELCQALSQPGTTLRVLCLGDCEVTNSGCSSLASLLLANRSLRELDLSNNCVGDPGVLQLLGSLEQPGCALEQLVLYDTYWTEEVEDRLQALEGSKPGLRVIS", "values": [{"measurement": "sk_class", "setting": "[1]", "result": "Positive (positive (a hot residue) ΔΔG ≥ 4.184 kJ/mol)"}, {"measurement": "sk_ddG_kJ", "setting": "[2]", "result": 5.44, "unit": "kJ"}]}
{"molecule": "1DFJ DI431A (protein, UniProt P10775 1-456, looked up, variant D431A) Ribonuclease inhibitor: MNLDIHCEQLSDARWTELLPLLQQYEVVRLDDCGLTEEHCKDIGSALRANPSLTELCLRTNELGDAGVHLVLQGLQSPTCKIQKLSLQNCSLTEAGCGVLPSTLRSLPTLRELHLSDNPLGDAGLRLLCEGLLDPQCHLEKLQLEYCRLTAASCEPLASVLRATRALKELTVSNNDIGEAGARVLGQGLADSACQLETLRLENCGLTPANCKDLCGIVASQASLRELDLGSNGLGDAGIAELCPGLLSPASRLKTLWLWECDITASGCRDLCRVLQAKETLKELSLAGNKLGDEGARLLCESLLQPGCQLESLWVKSCSLTAACCQHVSLMLTQNKHLLELQLSSNKLGDSGIQELCQALSQPGTTLRVLCLGDCEVTNSGCSSLASLLLANRSLRELDLSNNCVGDPGVLQLLGSLEQPGCALEQLVLYATYWTEEVEDRLQALEGSKPGLRVIS", "values": [{"measurement": "sk_class", "setting": "[1]", "result": "Positive (positive (a hot residue) ΔΔG ≥ 4.184 kJ/mol)"}, {"measurement": "sk_ddG_kJ", "setting": "[2]", "result": 15.31, "unit": "kJ"}]}
{"molecule": "1DFJ EI283A (protein, UniProt P10775 1-456, looked up, variant E283A) Ribonuclease inhibitor: MNLDIHCEQLSDARWTELLPLLQQYEVVRLDDCGLTEEHCKDIGSALRANPSLTELCLRTNELGDAGVHLVLQGLQSPTCKIQKLSLQNCSLTEAGCGVLPSTLRSLPTLRELHLSDNPLGDAGLRLLCEGLLDPQCHLEKLQLEYCRLTAASCEPLASVLRATRALKELTVSNNDIGEAGARVLGQGLADSACQLETLRLENCGLTPANCKDLCGIVASQASLRELDLGSNGLGDAGIAELCPGLLSPASRLKTLWLWECDITASGCRDLCRVLQAKETLKALSLAGNKLGDEGARLLCESLLQPGCQLESLWVKSCSLTAACCQHVSLMLTQNKHLLELQLSSNKLGDSGIQELCQALSQPGTTLRVLCLGDCEVTNSGCSSLASLLLANRSLRELDLSNNCVGDPGVLQLLGSLEQPGCALEQLVLYDTYWTEEVEDRLQALEGSKPGLRVIS", "values": [{"measurement": "sk_class", "setting": "[1]", "result": "Positive (positive (a hot residue) ΔΔG ≥ 4.184 kJ/mol)"}, {"measurement": "sk_ddG_kJ", "setting": "[2]", "result": 5.52, "unit": "kJ"}]}
{"molecule": "1DFJ EI397A (protein, UniProt P10775 1-456, looked up, variant E397A) Ribonuclease inhibitor: MNLDIHCEQLSDARWTELLPLLQQYEVVRLDDCGLTEEHCKDIGSALRANPSLTELCLRTNELGDAGVHLVLQGLQSPTCKIQKLSLQNCSLTEAGCGVLPSTLRSLPTLRELHLSDNPLGDAGLRLLCEGLLDPQCHLEKLQLEYCRLTAASCEPLASVLRATRALKELTVSNNDIGEAGARVLGQGLADSACQLETLRLENCGLTPANCKDLCGIVASQASLRELDLGSNGLGDAGIAELCPGLLSPASRLKTLWLWECDITASGCRDLCRVLQAKETLKELSLAGNKLGDEGARLLCESLLQPGCQLESLWVKSCSLTAACCQHVSLMLTQNKHLLELQLSSNKLGDSGIQELCQALSQPGTTLRVLCLGDCEVTNSGCSSLASLLLANRSLRALDLSNNCVGDPGVLQLLGSLEQPGCALEQLVLYDTYWTEEVEDRLQALEGSKPGLRVIS", "values": [{"measurement": "sk_class", "setting": "[1]", "result": "Positive (positive (a hot residue) ΔΔG ≥ 4.184 kJ/mol)"}, {"measurement": "sk_ddG_kJ", "setting": "[2]", "result": 5.48, "unit": "kJ"}]}
{"molecule": "1DFJ RI453A (protein, UniProt P10775 1-456, looked up, variant R453A) Ribonuclease inhibitor: MNLDIHCEQLSDARWTELLPLLQQYEVVRLDDCGLTEEHCKDIGSALRANPSLTELCLRTNELGDAGVHLVLQGLQSPTCKIQKLSLQNCSLTEAGCGVLPSTLRSLPTLRELHLSDNPLGDAGLRLLCEGLLDPQCHLEKLQLEYCRLTAASCEPLASVLRATRALKELTVSNNDIGEAGARVLGQGLADSACQLETLRLENCGLTPANCKDLCGIVASQASLRELDLGSNGLGDAGIAELCPGLLSPASRLKTLWLWECDITASGCRDLCRVLQAKETLKELSLAGNKLGDEGARLLCESLLQPGCQLESLWVKSCSLTAACCQHVSLMLTQNKHLLELQLSSNKLGDSGIQELCQALSQPGTTLRVLCLGDCEVTNSGCSSLASLLLANRSLRELDLSNNCVGDPGVLQLLGSLEQPGCALEQLVLYDTYWTEEVEDRLQALEGSKPGLAVIS", "values": [{"measurement": "sk_class", "setting": "[1]", "result": "Neutral (neutral (little effect) 4.184 kJ/mol < ΔΔG > −4.184 kJ/mol)"}, {"measurement": "sk_ddG_kJ", "setting": "[2]", "result": 3.56, "unit": "kJ"}]}
{"molecule": "1DFJ EI340A (protein, UniProt P10775 1-456, looked up, variant E340A) Ribonuclease inhibitor: MNLDIHCEQLSDARWTELLPLLQQYEVVRLDDCGLTEEHCKDIGSALRANPSLTELCLRTNELGDAGVHLVLQGLQSPTCKIQKLSLQNCSLTEAGCGVLPSTLRSLPTLRELHLSDNPLGDAGLRLLCEGLLDPQCHLEKLQLEYCRLTAASCEPLASVLRATRALKELTVSNNDIGEAGARVLGQGLADSACQLETLRLENCGLTPANCKDLCGIVASQASLRELDLGSNGLGDAGIAELCPGLLSPASRLKTLWLWECDITASGCRDLCRVLQAKETLKELSLAGNKLGDEGARLLCESLLQPGCQLESLWVKSCSLTAACCQHVSLMLTQNKHLLALQLSSNKLGDSGIQELCQALSQPGTTLRVLCLGDCEVTNSGCSSLASLLLANRSLRELDLSNNCVGDPGVLQLLGSLEQPGCALEQLVLYDTYWTEEVEDRLQALEGSKPGLRVIS", "values": [{"measurement": "sk_class", "setting": "[1]", "result": "Positive (positive (a hot residue) ΔΔG ≥ 4.184 kJ/mol)"}, {"measurement": "sk_ddG_kJ", "setting": "[2]", "result": 6.57, "unit": "kJ"}]}
{"molecule": "1EMV DA26A (protein, UniProt P13479 1-86, looked up, variant D26A) Colicin-E9 immunity protein: MELKHSISDYTEAEFLQLVTTICNAATSSEEELVKLVTHFEEMTEHPSGSDLIYYPKEGDDDSPSGIVNTVKQWRAANGKSGFKQG", "values": [{"measurement": "sk_class (class of the SKEMPI experimental ΔΔG)", "setting": "[1]", "result": "Neutral (neutral (little effect) 4.184 kJ/mol < ΔΔG > −4.184 kJ/mol)"}, {"measurement": "sk_ddG_kJ (SKEMPI experimental ΔΔG, mutation to alanine)", "setting": "[2]", "result": 1.42, "unit": "kJ"}]}
{"molecule": "1EMV EA32A (protein, UniProt P13479 1-86, looked up, variant E32A) Colicin-E9 immunity protein: MELKHSISDYTEAEFLQLVTTICNADTSSEEALVKLVTHFEEMTEHPSGSDLIYYPKEGDDDSPSGIVNTVKQWRAANGKSGFKQG", "values": [{"measurement": "sk_class (class of the SKEMPI experimental ΔΔG)", "setting": "[1]", "result": "Neutral (neutral (little effect) 4.184 kJ/mol < ΔΔG > −4.184 kJ/mol)"}, {"measurement": "sk_ddG_kJ (SKEMPI experimental ΔΔG, mutation to alanine)", "setting": "[2]", "result": 0.92, "unit": "kJ"}]}
{"molecule": "1EMV EA31A (protein, UniProt P13479 1-86, looked up, variant E31A) Colicin-E9 immunity protein: MELKHSISDYTEAEFLQLVTTICNADTSSEAELVKLVTHFEEMTEHPSGSDLIYYPKEGDDDSPSGIVNTVKQWRAANGKSGFKQG", "values": [{"measurement": "sk_class (class of the SKEMPI experimental ΔΔG)", "setting": "[1]", "result": "Neutral (neutral (little effect) 4.184 kJ/mol < ΔΔG > −4.184 kJ/mol)"}, {"measurement": "sk_ddG_kJ (SKEMPI experimental ΔΔG, mutation to alanine)", "setting": "[2]", "result": 1.30, "unit": "kJ"}]}
